Reference: patent publication US20150344570A1 (published 2015)

B1: GpH7-A5/GpH7-B3 variant S298_03V/GpL16-k0 (antibody, human IgG1, kappa)
heavy 1: not shown
heavy 2: not shown
light: DIVMTQSPLSLPVTPGEPASISCQASESLVHSNRNTYLHWYLQKPGQSPQLLIYKVSNRFSGVPDRFSGSGSGTDFTLKISRVEAEDVGVYYCSQNTHVPPTFGQGTKVEIERTVAAPSVFIFPPSDEQLKSGTASVVCLLNNFYPREAKVQWKVDNALQSGNSQESVTEQDSKDSTYSLSSTLTLSKADYEKHKVYACEVTHQGLSSPVTKSFNRGEC
notes: He Ab; IgG1, mutation in one H chain
B2: GpH7-A5/GpH7-B3 variant S298_04F/GpL16-k0 (antibody, human IgG1, kappa)
heavy 1: not shown
heavy 2: not shown
light: B1 light
notes: as for B1
B3: GpH7-A5/GpH7-B3 variant S298_07I/GpL16-k0 (antibody, human IgG1, kappa)
heavy 1: not shown
heavy 2: not shown
light: B1 light
notes: as for B1
B4: GpH7-A5/GpH7-B3 variant S298_09D/GpL16-k0 (antibody, human IgG1, kappa)
heavy 1: not shown
heavy 2: not shown
light: B1 light
notes: as for B1
B5: GpH7-A5/GpH7-B3 variant S298_10E/GpL16-k0 (antibody, human IgG1, kappa)
heavy 1: not shown
heavy 2: not shown
light: B1 light
notes: as for B1
B6: GpH7-A5/GpH7-B3 variant S298_11K/GpL16-k0 (antibody, human IgG1, kappa)
heavy 1: not shown
heavy 2: not shown
light: B1 light
notes: as for B1
B7: GpH7-A5/GpH7-B3 variant S298_12R/GpL16-k0 (antibody, human IgG1, kappa)
heavy 1: not shown
heavy 2: not shown
light: B1 light
notes: as for B1
B8: GpH7-A5/GpH7-B3 variant S298_14T/GpL16-k0 (antibody, human IgG1, kappa)
heavy 1: not shown
heavy 2: not shown
light: B1 light
notes: as for B1
B9: GpH7-A5/GpH7-B3 variant S298_15Y/GpL16-k0 (antibody, human IgG1, kappa)
heavy 1: not shown
heavy 2: not shown
light: B1 light
notes: as for B1
B10: GpH7-A5/GpH7-B3 variant S298_16H/GpL16-k0 (antibody, human IgG1, kappa)
heavy 1: not shown
heavy 2: not shown
light: B1 light
notes: as for B1
B11: GpH7-A5/GpH7-B3 variant S298_18N/GpL16-k0 (antibody, human IgG1, kappa)
heavy 1: not shown
heavy 2: not shown
light: B1 light
notes: as for B1
B12: GpH7-A5/GpH7-B3 variant S298_19Q/GpL16-k0 (antibody, human IgG1, kappa)
heavy 1: not shown
heavy 2: not shown
light: B1 light
notes: as for B1
B13: GpH7-A5/GpH7-B3 variant S298_20W/GpL16-k0 (antibody, human IgG1, kappa)
heavy 1: not shown
heavy 2: not shown
light: B1 light
notes: as for B1
B14: GpH7-A5/GpH7-B3 variant S324_02A/GpL16-k0 (antibody, human IgG1, kappa)
heavy 1: not shown
heavy 2: not shown
light: B1 light
notes: as for B1
B15: GpH7-A5/GpH7-B3 variant S324_03V/GpL16-k0 (antibody, human IgG1, kappa)
heavy 1: not shown
heavy 2: not shown
light: B1 light
notes: as for B1
B16: GpH7-A5/GpH7-B3 variant S324_07I/GpL16-k0 (antibody, human IgG1, kappa)
heavy 1: not shown
heavy 2: not shown
light: B1 light
notes: as for B1
B17: GpH7-A5/GpH7-B3 variant Y296_01G/GpL16-k0 (antibody, human IgG1, kappa)
heavy 1: not shown
heavy 2: not shown
light: B1 light
notes: as for B1
B18: GpH7-A5/GpH7-B3 variant Y296_02A/GpL16-k0 (antibody, human IgG1, kappa)
heavy 1: not shown
heavy 2: not shown
light: B1 light
notes: as for B1
B19: GpH7-A5/GpH7-B3 variant Y296_03V/GpL16-k0 (antibody, human IgG1, kappa)
heavy 1: not shown
heavy 2: not shown
light: B1 light
notes: as for B1
B20: GpH7-A5/GpH7-B3 variant Y296_04F/GpL16-k0 (antibody, human IgG1, kappa)
heavy 1: not shown
heavy 2: not shown
light: B1 light
notes: as for B1
B21: GpH7-A5/GpH7-B3 variant Y296_06M/GpL16-k0 (antibody, human IgG1, kappa)
heavy 1: not shown
heavy 2: not shown
light: B1 light
notes: as for B1
B22: GpH7-A5/GpH7-B3 variant Y296_07I/GpL16-k0 (antibody, human IgG1, kappa)
heavy 1: not shown
heavy 2: not shown
light: B1 light
notes: as for B1
B23: GpH7-A5/GpH7-B3 variant Y296_08L/GpL16-k0 (antibody, human IgG1, kappa)
heavy 1: not shown
heavy 2: not shown
light: B1 light
notes: as for B1

The binders below were run against T1, FcγRIIb extracellular domain with C-terminal His tag (human, UniProt P31994 43-217) (assay: SPR (Biacore), captured antibody, FcγR as analyte; relative binding).
T1 construct: extracellular domain; expressed in FreeStyle293 cells; analyte in Biacore; also called FcgRIIb; 2b
T1 sequence (looked up): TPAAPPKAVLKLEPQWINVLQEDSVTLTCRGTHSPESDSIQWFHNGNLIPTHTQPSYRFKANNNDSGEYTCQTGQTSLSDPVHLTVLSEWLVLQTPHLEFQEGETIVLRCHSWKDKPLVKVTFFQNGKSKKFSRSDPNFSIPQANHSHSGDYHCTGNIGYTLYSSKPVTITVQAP

Point of comparison: B18, He/Con_2b 82 % of HeCon Ab (GpH7-A5/GpH7-B3/GpL16-k0 = 100). Against it:
- B1 — lower, 64.5 % of HeCon Ab (GpH7-A5/GpH7-B3/GpL16-k0 = 100)
- B2 — lower, 65.4 % of HeCon Ab (GpH7-A5/GpH7-B3/GpL16-k0 = 100)
- B3 — lower, 70.6 % of HeCon Ab (GpH7-A5/GpH7-B3/GpL16-k0 = 100)
- B4 — lower, 48.3 % of HeCon Ab (GpH7-A5/GpH7-B3/GpL16-k0 = 100)
- B5 — lower, 47.6 % of HeCon Ab (GpH7-A5/GpH7-B3/GpL16-k0 = 100)
- B6 — lower, 61.3 % of HeCon Ab (GpH7-A5/GpH7-B3/GpL16-k0 = 100)
- B7 — lower, 57.8 % of HeCon Ab (GpH7-A5/GpH7-B3/GpL16-k0 = 100)
- B8 — lower, 77.9 % of HeCon Ab (GpH7-A5/GpH7-B3/GpL16-k0 = 100)
- B9 — lower, 61.4 % of HeCon Ab (GpH7-A5/GpH7-B3/GpL16-k0 = 100)
- B10 — lower, 63.5 % of HeCon Ab (GpH7-A5/GpH7-B3/GpL16-k0 = 100)
- B11 — lower, 48.1 % of HeCon Ab (GpH7-A5/GpH7-B3/GpL16-k0 = 100)
- B12 — lower, 73.3 % of HeCon Ab (GpH7-A5/GpH7-B3/GpL16-k0 = 100)
- B13 — lower, 41.1 % of HeCon Ab (GpH7-A5/GpH7-B3/GpL16-k0 = 100)
- B14 — lower, 78.3 % of HeCon Ab (GpH7-A5/GpH7-B3/GpL16-k0 = 100)
- B15 — higher, 97.8 % of HeCon Ab (GpH7-A5/GpH7-B3/GpL16-k0 = 100)
- B16 — higher, 95.7 % of HeCon Ab (GpH7-A5/GpH7-B3/GpL16-k0 = 100)
- B17 — lower, 79.3 % of HeCon Ab (GpH7-A5/GpH7-B3/GpL16-k0 = 100)
- B19 — lower, 79.3 % of HeCon Ab (GpH7-A5/GpH7-B3/GpL16-k0 = 100)
- B20 — higher, 99.2 % of HeCon Ab (GpH7-A5/GpH7-B3/GpL16-k0 = 100)
- B21 — higher, 87.8 % of HeCon Ab (GpH7-A5/GpH7-B3/GpL16-k0 = 100)
- B22 — higher, 84.3 % of HeCon Ab (GpH7-A5/GpH7-B3/GpL16-k0 = 100)
- B23 — higher, 82.3 % of HeCon Ab (GpH7-A5/GpH7-B3/GpL16-k0 = 100)

The binders below were run against T2, FcγRIa extracellular domain with C-terminal His tag (human, UniProt P12314 16-292) in the same assay as above.
T2 construct: extracellular domain; expressed in FreeStyle293 cells; analyte in Biacore; also called FcgRI; 1a
T2 sequence (P12314 16-292): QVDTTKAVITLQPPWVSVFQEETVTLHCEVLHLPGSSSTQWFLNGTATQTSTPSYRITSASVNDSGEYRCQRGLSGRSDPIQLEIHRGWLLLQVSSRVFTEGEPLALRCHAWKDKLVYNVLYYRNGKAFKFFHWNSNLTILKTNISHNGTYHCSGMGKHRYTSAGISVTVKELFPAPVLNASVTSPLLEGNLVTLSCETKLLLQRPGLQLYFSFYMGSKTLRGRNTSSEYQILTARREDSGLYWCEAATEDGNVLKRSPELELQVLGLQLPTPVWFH

Point of comparison: B13, He/Con_1a 104 % of HeCon Ab (GpH7-A5/GpH7-B3/GpL16-k0 = 100). Against it:
- B1 — higher, 110 % of HeCon Ab (GpH7-A5/GpH7-B3/GpL16-k0 = 100)
- B2 — higher, 109 % of HeCon Ab (GpH7-A5/GpH7-B3/GpL16-k0 = 100)
- B3 — higher, 107 % of HeCon Ab (GpH7-A5/GpH7-B3/GpL16-k0 = 100)
- B4 — higher, 106 % of HeCon Ab (GpH7-A5/GpH7-B3/GpL16-k0 = 100)
- B5 — higher, 108 % of HeCon Ab (GpH7-A5/GpH7-B3/GpL16-k0 = 100)
- B6 — higher, 109 % of HeCon Ab (GpH7-A5/GpH7-B3/GpL16-k0 = 100)
- B7 — higher, 109 % of HeCon Ab (GpH7-A5/GpH7-B3/GpL16-k0 = 100)
- B8 — higher, 107 % of HeCon Ab (GpH7-A5/GpH7-B3/GpL16-k0 = 100)
- B9 — higher, 107 % of HeCon Ab (GpH7-A5/GpH7-B3/GpL16-k0 = 100)
- B10 — higher, 109 % of HeCon Ab (GpH7-A5/GpH7-B3/GpL16-k0 = 100)
- B11 — higher, 108 % of HeCon Ab (GpH7-A5/GpH7-B3/GpL16-k0 = 100)
- B12 — higher, 109 % of HeCon Ab (GpH7-A5/GpH7-B3/GpL16-k0 = 100)
- B14 — lower, 103 % of HeCon Ab (GpH7-A5/GpH7-B3/GpL16-k0 = 100)
- B15 — the same, 104 % of HeCon Ab (GpH7-A5/GpH7-B3/GpL16-k0 = 100)
- B16 — lower, 102 % of HeCon Ab (GpH7-A5/GpH7-B3/GpL16-k0 = 100)
- B17 — lower, 103 % of HeCon Ab (GpH7-A5/GpH7-B3/GpL16-k0 = 100)
- B18 — lower, 103 % of HeCon Ab (GpH7-A5/GpH7-B3/GpL16-k0 = 100)
- B19 — the same, 104 % of HeCon Ab (GpH7-A5/GpH7-B3/GpL16-k0 = 100)
- B20 — the same, 104 % of HeCon Ab (GpH7-A5/GpH7-B3/GpL16-k0 = 100)
- B21 — the same, 104 % of HeCon Ab (GpH7-A5/GpH7-B3/GpL16-k0 = 100)
- B22 — the same, 104 % of HeCon Ab (GpH7-A5/GpH7-B3/GpL16-k0 = 100)
- B23 — the same, 104 % of HeCon Ab (GpH7-A5/GpH7-B3/GpL16-k0 = 100)
